Measured values as given in patent US20210155697A1 (UNITY BIOTECHNOLOGY, published 2021).
Changes are numbered by the printed parent chain.

T1: rabbit full-length Tie2 on HEK cells (rabbit)
T1 chain: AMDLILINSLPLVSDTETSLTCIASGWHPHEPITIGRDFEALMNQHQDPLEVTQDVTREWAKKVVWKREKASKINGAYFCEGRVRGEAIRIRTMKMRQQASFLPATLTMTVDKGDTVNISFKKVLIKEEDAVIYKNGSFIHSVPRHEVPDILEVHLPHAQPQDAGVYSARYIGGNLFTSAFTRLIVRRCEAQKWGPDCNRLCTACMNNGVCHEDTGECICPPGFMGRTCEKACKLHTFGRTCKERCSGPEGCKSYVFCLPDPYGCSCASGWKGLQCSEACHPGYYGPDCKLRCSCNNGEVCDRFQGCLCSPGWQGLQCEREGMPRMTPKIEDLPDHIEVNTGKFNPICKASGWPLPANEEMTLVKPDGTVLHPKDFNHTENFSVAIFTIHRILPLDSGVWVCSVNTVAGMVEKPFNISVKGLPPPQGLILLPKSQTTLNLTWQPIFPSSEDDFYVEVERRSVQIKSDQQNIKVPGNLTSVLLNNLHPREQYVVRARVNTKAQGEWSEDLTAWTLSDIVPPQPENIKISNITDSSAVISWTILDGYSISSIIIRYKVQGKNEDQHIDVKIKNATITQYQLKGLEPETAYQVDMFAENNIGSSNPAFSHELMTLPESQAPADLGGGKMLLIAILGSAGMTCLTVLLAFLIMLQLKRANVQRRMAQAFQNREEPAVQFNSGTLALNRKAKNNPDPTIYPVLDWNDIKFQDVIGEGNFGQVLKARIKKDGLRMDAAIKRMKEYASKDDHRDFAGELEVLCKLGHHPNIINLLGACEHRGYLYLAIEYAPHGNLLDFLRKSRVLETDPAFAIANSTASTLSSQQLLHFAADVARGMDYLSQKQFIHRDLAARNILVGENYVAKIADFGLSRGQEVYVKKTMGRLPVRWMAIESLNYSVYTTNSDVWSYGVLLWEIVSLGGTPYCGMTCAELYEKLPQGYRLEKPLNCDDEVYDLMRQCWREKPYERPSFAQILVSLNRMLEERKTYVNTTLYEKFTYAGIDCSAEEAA

B1: anti-Tie2 antibody #6 (antibody, V domains shown)
VH: DVQLVESGGGVVRPGESLRLSCTASGFSFDVYAMTWVRQAPGKGLEWLTLISGTGRMTYYADSVKGRFTVSRDNSKKTLYLQMNSLRAEDTAVYYCAKDPFGHGFFDYWGLGTLVTVSS
VL: EIVLTQSPGTLTLSPGETATLTCRASQSVNRNLAWYQEKPDQAPRLLIYDARTRATGVPDRFSGSGSGTDFTLTINSLQSEDFAVYVCQQYYDWPPFTFGGGTKVEIK
notes: also called Ab #6; Antibody Clone # 6
B2: human anti-Tie2 antibody #2 (antibody, V domains shown)
VH: DVQLVESGGGVVRPGESLRLSCAASGFSFINFAMTWVRQAPGEGPEWVSLISDDGRGNRPYYADSVKGRFTISRDNSKNILYLQMNSLRVEDTATYYCAKVSWDVFFDYWGLGTVVTVSS
VL: EIVLTQSPGTVSLSPGERVTLSCRASQPIDVYLAWYQQKPGQAPRLLIYGANRRAIDIPDRFSGSGSGTEFTLTINSLQNEDFAVYFCQQYMTWPPVTFGGGTKVEIK
notes: also called Ab #2; Antibody Clone # 2
B3: anti-Tie2 antibody #31 (antibody, V domains shown)
VH: B2 VH with L18P, V115L
VL: B2 VL
notes: also called Ab #31; Antibody Clone # 31
B4: human anti-Tie2 antibody #3 (antibody, V domains shown)
VH: DVQLVESGGGVVRPGESLRLSCTASGFTFDSYGMSWVRQAPGKGLEWVSSINVGDNTYYADSVRGRFIISRDSSRNTLYLQMNSLTAEDTAVYYCANWNSFFDYWGLGTLVTVSS
VL: EIVLTQSPGTLSLSPGEIATLSCRASQNVRSDLAWYQQKPGQAPRLLIYDASNRATGIPDRFSGSGSGTDFTLTISSLQSEDFAVYYCQQYSNWPPLTFGGGTKVEIK
notes: also called Ab #3; Antibody Clone # 3
B5: antibody clone #3 Fab (Fab, V domains shown)
VH: B4 VH
VL: B4 VL
B6: anti-Tie2 antibody #5 (antibody, V domains shown)
VH: B1 VH
VL: B4 VL with I18R, N28T, R30G, D32K, N53T, S92N
notes: also called Ab #5; Antibody Clone # 5
B7: Angiopoietin-1 (ligand, UniProt Q15389 20-498, looked up)
chain: SNQRRSPENSGRRYNRIQHGQCAYTFILPEHDGNCRESTTDQYNTNALQRDAPHVEPDFSSQKLQHLEHVMENYTQWLQKLENYIVENMKSEMAQIQQNAVQNHTATMLEIGTSLLSQTAEQTRKLTDVETQVLNQTSRLEIQLLENSLSTYKLEKQLLQQTNEILKIHEKNSLLEHKILEMEGKHKEELDTLKEEKENLQGLVTRQTYIIQELEKQLNRATTNNSVLQKQQLELMDTVHNLVNLCTKEGVLLKGGKREEEKPFRDCADVYQAGFNKSGIYTIYINNMPEPKKVFCNMDVNGGGWTVIQHREDGSLDFQRGWKEYKMGFGNPSGEYWLGNEFIFAITSQRQYMLRIELMDWEGNRAYSQYDRFHIGNEKQNYRLYLKGHTGTAGKQSSLILHGADFSTKDADNDNCMCKCALMLTGGWWFDACGPSNLNGMFYTAGQNHGKLNGIKWHYFKGPSYSLRSTTMMIRPLDF
B8: human anti-Tie2 antibody #1 (antibody, V domains shown)
VH: DVQLVESGGGVVRPGESLRLSCAASGFTFSSYAMSWVRQAPGEGLEWVARISDYTIYYADSVKGRFTISRDNSKNTLYLQMNSLRAEDTAVYYCAKSGPKSGKYWNNFFDSWGLGTLVTVSS
VL: EIVLTQSPGTLSVSPGERATLTCRASQSVKTDLAWYQQKPGQAPRLLIYGATTRATGIPARFSGSGSGTEFTLTITNLQSEDFAVYYCQQYYVWPPLTFGGGTKVEIK
notes: also called Ab #1; Antibody Clone # 1

Legend:
[1] = target: T2, cynomolgus monkey full-length Tie2 on HEK293 cells (cynomolgus monkey, UniProt G7PS68 23-1124); assay: flow cytometry on HEK293/Cyno Tie2 cells, mAb at 10 ug/mL
T2 construct: whole, on cells; also called HEK293/Cyno Tie2; HEK/cyno Tie2
From the text: (§1) Briefly, expression plasmids containing the full-length Tie2 coding sequence for each species were used to transfect primary human endothelial cells (HUVECs) as well as human embryonic kidney (HEK293) cells. A stable cell population was selected by treating transfectants with puromycin antibiotic over the course of 2 weeks and single cell clones were generated using fluorescence activated cell sorting. Upon confirmation of cell surface expression of these Tie2 variants, cell lines were used to determine apparent Kd (EC50) values of anti-Tie2 antibodies on the various Tie2 proteins. […] Cells were labeled with decreasing concentrations of anti-Tie2 antibodies #1, #2, and #3 (10, 5, 2.5, 1, […], 0.63, 0.31, and 0.16 ug/mL) or non-specific hIgG1 antibody (10 ug/mL), followed by labeling with a rabbit anti-human IgG antibody conjugated to an Alexa Fluor 488 fluorophore (20 ug/ml). EC50 values were generated using ForeCyt™ software.

[2] = target: T3, human full-length Tie2 on cells (human, UniProt Q02763 23-1124); assay: flow cytometry on HEK293/Human Tie2 cells, mAb at 10 ug/mL; design: unit not given here
T3 construct: used here for Tie2 native on HUVEC and full-length Tie2 overexpressed on HEK293; also called Human Tie2; huTie2
From the text: as §1
Target sequence in this assay (Q02763 23-1124 limits assumed): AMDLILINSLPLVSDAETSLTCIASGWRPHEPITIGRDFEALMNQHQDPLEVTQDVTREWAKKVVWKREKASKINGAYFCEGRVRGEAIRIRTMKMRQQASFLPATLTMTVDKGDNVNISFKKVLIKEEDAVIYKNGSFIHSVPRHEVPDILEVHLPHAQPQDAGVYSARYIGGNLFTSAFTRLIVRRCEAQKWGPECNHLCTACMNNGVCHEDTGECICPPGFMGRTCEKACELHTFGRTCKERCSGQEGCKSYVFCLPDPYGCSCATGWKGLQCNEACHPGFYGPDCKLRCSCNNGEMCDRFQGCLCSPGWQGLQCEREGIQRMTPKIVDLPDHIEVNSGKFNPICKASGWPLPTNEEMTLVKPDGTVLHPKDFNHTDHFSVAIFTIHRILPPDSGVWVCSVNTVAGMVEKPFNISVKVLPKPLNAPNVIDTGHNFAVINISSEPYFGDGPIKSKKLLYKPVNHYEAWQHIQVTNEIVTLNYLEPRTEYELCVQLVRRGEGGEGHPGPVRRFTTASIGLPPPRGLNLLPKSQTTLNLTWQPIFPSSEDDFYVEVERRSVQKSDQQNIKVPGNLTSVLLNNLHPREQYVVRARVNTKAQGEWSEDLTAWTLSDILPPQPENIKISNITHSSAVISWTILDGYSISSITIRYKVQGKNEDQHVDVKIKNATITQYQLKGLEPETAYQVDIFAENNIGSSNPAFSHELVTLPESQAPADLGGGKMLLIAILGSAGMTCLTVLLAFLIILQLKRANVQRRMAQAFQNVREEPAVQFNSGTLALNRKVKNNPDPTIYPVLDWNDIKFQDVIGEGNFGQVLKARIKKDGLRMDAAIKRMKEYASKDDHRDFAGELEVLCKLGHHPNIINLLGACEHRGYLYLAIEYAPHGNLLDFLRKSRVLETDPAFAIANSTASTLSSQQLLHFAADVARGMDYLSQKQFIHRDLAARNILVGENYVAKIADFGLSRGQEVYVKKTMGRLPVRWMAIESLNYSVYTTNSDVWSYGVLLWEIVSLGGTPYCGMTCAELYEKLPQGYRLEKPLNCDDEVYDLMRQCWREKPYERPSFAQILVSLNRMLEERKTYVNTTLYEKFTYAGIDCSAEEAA

[3] = target: T4, murine full-length Tie2 on HEK293 cells (mouse, UniProt Q02858 23-1122); assay: flow cytometry on HEK293/Murine Tie2 cells, mAb at 10 ug/mL
T4 construct: whole, on cells; also called HEK293/Murine Tie2; HEK/mTie2
From the text: as §1
Target sequence in this assay (Q02858 23-1122): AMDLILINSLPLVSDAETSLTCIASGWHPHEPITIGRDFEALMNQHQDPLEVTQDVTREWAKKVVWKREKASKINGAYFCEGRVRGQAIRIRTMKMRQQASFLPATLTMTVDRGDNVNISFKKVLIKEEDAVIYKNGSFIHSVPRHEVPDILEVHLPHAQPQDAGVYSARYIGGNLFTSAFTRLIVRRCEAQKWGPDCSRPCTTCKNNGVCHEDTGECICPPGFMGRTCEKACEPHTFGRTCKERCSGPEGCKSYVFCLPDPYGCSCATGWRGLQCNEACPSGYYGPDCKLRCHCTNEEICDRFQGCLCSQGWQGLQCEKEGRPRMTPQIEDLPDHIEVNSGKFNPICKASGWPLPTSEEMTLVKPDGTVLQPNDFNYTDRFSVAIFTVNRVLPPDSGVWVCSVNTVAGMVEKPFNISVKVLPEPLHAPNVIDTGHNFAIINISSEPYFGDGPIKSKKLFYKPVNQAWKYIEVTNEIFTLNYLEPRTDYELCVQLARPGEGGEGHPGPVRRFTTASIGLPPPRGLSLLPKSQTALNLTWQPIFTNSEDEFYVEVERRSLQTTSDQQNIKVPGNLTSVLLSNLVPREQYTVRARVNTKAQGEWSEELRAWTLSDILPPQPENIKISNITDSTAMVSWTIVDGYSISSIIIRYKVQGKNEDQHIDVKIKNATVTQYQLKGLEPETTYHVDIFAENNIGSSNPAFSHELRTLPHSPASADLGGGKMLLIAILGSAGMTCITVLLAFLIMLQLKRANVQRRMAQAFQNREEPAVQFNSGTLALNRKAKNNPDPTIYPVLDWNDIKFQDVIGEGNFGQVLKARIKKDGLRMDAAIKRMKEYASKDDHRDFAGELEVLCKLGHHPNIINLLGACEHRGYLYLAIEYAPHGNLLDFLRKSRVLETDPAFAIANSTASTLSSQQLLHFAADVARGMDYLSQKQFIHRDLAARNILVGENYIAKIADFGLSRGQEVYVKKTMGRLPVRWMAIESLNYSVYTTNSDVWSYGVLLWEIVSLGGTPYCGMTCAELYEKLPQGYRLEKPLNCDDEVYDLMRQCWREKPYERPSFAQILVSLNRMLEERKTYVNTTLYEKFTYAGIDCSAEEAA

[4] = target: T3, human full-length Tie2 on cells; assay: cell-based or functional assay
[5] = target: T3, human full-length Tie2 on cells; assay: flow cytometry on HUVEC; Apparent Kd (EC50 binding)
From the text: as §1

[6] = target: T1, rabbit full-length Tie2 on HEK cells; assay: flow cytometry on HEK/RbTie2 cells; Apparent Kd (EC50 binding)
From the text: as §1

[7] = target: T3, human full-length Tie2 on cells; assay: flow cytometry on HEK/huTie2 cells; Apparent Kd (EC50 binding)
From the text: as §1

[8] = target: T5, rat full-length Tie2 on HEK cells (rat, UniProt A0ABK0L6J5 19-1116); assay: flow cytometry on HEK/ratTie2 cells; Apparent Kd (EC50 binding)
T5 construct: whole, on cells; also called HEK/ratTie2
From the text: as §1

[9] = target: T2, cynomolgus monkey full-length Tie2 on …; assay: flow cytometry on HEK/cyno Tie2 cells; Apparent Kd (EC50 binding)
From the text: as §1

[10] = target: T4, murine full-length Tie2 on HEK293 cells; assay: flow cytometry on HEK/mTie2 cells; Apparent Kd (EC50 binding)
From the text: as §1

[11] = target: T6, recombinant human Tie2 ECD protein (human, UniProt Q02763 23-748); assay: SPR (BIACORE), Tie2 ECD immobilized on CM5, Fab as analyte, 25 C
T6 construct: also called human Tie2 extracellular domain
T6 sequence (Q02763 23-748 limits assumed): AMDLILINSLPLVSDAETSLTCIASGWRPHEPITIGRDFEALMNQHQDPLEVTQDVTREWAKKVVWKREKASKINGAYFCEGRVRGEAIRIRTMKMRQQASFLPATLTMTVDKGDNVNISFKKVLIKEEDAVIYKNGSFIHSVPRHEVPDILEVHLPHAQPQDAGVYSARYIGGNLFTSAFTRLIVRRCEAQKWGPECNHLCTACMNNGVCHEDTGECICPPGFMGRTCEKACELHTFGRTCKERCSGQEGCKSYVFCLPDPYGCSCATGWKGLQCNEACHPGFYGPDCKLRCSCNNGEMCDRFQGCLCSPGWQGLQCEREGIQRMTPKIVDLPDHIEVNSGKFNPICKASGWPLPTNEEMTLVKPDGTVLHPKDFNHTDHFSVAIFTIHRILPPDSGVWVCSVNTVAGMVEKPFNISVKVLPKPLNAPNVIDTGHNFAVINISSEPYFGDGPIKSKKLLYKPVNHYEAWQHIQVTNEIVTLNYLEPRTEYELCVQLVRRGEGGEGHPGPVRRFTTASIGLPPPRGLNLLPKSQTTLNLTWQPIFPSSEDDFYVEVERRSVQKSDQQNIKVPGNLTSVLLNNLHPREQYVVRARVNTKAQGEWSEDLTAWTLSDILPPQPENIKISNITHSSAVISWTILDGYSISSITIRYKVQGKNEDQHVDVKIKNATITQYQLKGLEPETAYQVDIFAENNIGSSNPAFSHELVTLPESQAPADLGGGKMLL
Procedure: (§2) BIACORE™ (BIAcore, Inc., Piscataway, N.J.) was performed at 25° C. with immobilized human, rat or mouse Tie2 ECD antigens on carboxymethylated dextran biosensor chips (CM5) chips at about 10 response units (RU). CM5 chips were activated with N-ethyl-N′-(3-dimethylaminopropyl)-carbodiimide hydrochloride (EDC) and N-hydroxysuccinimide (NFIS) according to the supplier's instructions. All Tie2 ECD antigens were diluted with 10 mM sodium acetate, pH 4.8, to […] before injection at a flow rate of 5 μl/minute to achieve approximately 10 RU of coupled protein. Following the injection of each Tie2 ECD, 1 M ethanolamine was injected to block unreacted groups. For kinetics measurements, two-fold serial dilutions of the antibody clone #3 Fab (0.78 nM to 500 nM) were injected in PBS with 0.05% polysorbate 20 (TWEEN™-20) surfactant (PBST) at 25° C. at a flow rate of approximately 25 μl/min. Association rates (kon) and dissociation rates (koff) were calculated using a simple one-to-one Langmuir binding model (BIACORE™ Evaluation Software version 3.2) by simultaneously fitting the association and dissociation sensorgrams. The equilibrium dissociation constant (KD) was calculated as the ratio koff/kon. See, for example, Chen et al., J. Mol. Biol. 293:865-881 (1999).

[12] = target: T7, recombinant mouse Tie2 ECD protein (mouse, UniProt Q02858 23-746); assay: as above
T7 construct: extracellular domain
T7 sequence (Q02858 23-746): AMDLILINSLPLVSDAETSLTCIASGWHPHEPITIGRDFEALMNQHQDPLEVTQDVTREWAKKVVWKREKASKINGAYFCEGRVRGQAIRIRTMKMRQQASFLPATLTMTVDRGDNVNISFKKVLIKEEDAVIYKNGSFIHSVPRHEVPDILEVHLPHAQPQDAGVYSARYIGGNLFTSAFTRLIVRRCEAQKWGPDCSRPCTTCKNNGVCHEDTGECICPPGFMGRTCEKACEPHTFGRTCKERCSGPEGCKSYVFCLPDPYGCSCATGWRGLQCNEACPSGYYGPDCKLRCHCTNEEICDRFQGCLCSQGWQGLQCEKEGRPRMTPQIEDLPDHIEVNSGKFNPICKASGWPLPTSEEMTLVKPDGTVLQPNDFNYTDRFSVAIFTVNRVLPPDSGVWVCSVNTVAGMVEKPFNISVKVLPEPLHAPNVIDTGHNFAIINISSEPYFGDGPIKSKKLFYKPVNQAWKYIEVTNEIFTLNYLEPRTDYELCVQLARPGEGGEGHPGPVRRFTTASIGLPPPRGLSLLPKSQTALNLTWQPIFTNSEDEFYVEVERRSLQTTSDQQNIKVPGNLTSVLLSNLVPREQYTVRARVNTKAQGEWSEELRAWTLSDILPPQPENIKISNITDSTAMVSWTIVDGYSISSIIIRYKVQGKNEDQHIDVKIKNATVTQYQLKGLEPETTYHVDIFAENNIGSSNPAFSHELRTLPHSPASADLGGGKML
Procedure: as §2

Rat Tie2 ECD = target: T8, Rat Tie2 ECD (rat, UniProt A0ABK0L6J5 19-740); assay: as above
T8 construct: extracellular domain
Procedure: as §2

Row | Binder | Cross-Reactivity Screen (mAb at 10 ug/mL) [1] | Cross-Reactivity Screen (mAb at 10 ug/mL) [2] | Cross-Reactivity Screen (mAb at 10 ug/mL) [3] | EC50 of pAkt relative to total Akt in HUVEC cells (western blot, quantitative fluorescence imaging) [4] [nM] | EC50 [5] [nM] | EC50 [7] [nM] | EC50 [9] [nM] | further results
1 | B1 | 78.8 | 63.7 | 0.3 |  |  |  |  | 
2 | B2 | 53.2 | 64.9 | 41.7 | 0.48 | 1 | 2.7 | 7.7 | EC50 [6]: 4.1 nM; EC50 [8]: 1.4 nM
3 | B3 | 47.5 | 65.3 | 28.5 |  |  |  |  | 
4 | B4 | 40.2 | 40.2 | 32.5 | 0.45 | 1.7 | 1.9 | 3.7 | EC50 [10]: 6.3 nM; EC50 [6]: 3.3 nM; EC50 [8]: 4.6 nM
5 | B5 |  |  |  |  |  |  |  | Kd [11]: 2.34 nM; koff [11]: 0.000377 s⁻¹; kon [11]: 161000 M⁻¹ s⁻¹; Kd [12]: 3.21 nM; koff [12]: 0.000876 s⁻¹; kon [12]: 273000 M⁻¹ s⁻¹; Kd (Rat Tie2 ECD): 2.56 nM; kon (Rat Tie2 ECD): 254000 M⁻¹ s⁻¹
6 | B6 | 73.1 | 60.2 | 0.2 |  |  |  |  | 
7 | B7 |  |  |  | 0.54 |  |  |  | 
8 | B8 | 74.1 | 60.7 | 0.4 | 0.91 | 2 | 8 | 7.8 | 
